# According to IntAct's records for PubMed 28966017:
# B1: Drebrin (Homo sapiens), Q16643 (parent)
# chain: MAGVSFSGHRLELLAAYEEVIREESAADWALYTYEDGSDDLKLAASGEGGLQELSGHFENQKVMYGFCSVKDSQAALPKYVLINWVGEDVPDARKCACASHVAKVAEFFQGVDVIVNASSVEDIDAGAIGQRLSNGLARLSSPVLHRLRLREDENAEPVGTTYQKTDAAVEMKRINREQFWEQAKKEEELRKEEERKKALDERLRFEQERMEQERQEQEERERRYREREQQIEEHRRKQQTLEAEEAKRRLKEQSIFGDHRDEEEETHMKKSESEVEEAAAIIAQRPDNPREFFKQQERVASASAGSCDVPSPFNHRPGSHLDSHRRMAPTPIPTRSPSDSSTASTPVAEQIERALDEVTSSQPPPLPPPPPPAQETQEPSPILDSEETRAAAPQAWAGPMEEPPQAQAPPRGPGSPAEDLMFMESAEQAVLAAPVEPATADATEIHDAADTIETDTATADTTVANNVPPAATSLIDLWPGNGEGASTLQGEPRAPTPPSGTEVTLAEVPLLDEVAPEPLLPAGEGCATLLNFDELPEPPATFCDPEEVEGESLAAPQTPTLPSALEELEQEQEPEPHLLTNGETTQKEGTQASEGYFSQSQEEEFAQSEELCAKAPPPVFYNKPPEIDITCWDADPVPEEEEGFEGGD
# partner: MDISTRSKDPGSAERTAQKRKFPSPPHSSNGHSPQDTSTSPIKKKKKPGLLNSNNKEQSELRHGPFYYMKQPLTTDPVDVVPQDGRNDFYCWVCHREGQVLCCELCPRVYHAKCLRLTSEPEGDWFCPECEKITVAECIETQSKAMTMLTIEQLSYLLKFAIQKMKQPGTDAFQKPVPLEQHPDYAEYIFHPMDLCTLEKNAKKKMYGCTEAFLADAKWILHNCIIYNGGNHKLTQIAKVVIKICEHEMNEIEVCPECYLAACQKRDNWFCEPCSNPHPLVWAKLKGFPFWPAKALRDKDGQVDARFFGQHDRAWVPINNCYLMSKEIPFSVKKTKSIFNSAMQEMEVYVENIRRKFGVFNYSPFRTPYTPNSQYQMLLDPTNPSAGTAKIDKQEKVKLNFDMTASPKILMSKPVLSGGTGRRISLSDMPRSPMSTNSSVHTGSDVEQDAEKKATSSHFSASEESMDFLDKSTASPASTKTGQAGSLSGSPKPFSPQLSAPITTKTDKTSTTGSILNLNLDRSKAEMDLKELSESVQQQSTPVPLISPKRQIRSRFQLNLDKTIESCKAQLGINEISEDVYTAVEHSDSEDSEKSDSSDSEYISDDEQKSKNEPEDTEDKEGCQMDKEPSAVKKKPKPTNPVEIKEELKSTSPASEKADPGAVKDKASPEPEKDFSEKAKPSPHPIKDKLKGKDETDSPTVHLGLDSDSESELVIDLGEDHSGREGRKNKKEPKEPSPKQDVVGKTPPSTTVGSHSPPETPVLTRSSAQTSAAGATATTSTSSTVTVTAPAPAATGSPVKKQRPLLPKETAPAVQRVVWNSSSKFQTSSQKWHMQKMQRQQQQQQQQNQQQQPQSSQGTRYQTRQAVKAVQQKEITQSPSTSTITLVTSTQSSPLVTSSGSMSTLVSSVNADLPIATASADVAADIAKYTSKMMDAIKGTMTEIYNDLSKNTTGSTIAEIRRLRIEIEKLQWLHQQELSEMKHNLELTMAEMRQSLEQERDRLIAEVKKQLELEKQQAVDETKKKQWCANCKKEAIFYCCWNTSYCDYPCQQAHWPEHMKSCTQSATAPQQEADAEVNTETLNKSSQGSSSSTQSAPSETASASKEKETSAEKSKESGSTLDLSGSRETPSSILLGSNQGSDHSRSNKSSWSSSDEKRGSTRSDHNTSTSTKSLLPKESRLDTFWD
# B2: MYND-type zinc finger-containing chromatin reader ZMYND8 (Homo sapiens), Q9ULU4 (parent)
# chain: B1 partner
# partner: B1 chain
# Variants of: B1
# Details: with zmyd8_human ZMYND8, Q9ULU4
row,effect of a mutation on the interaction,Variant
1,disrupting interaction strength,R10G

# Variants of: B2
# Details: with dreb_human DBN1, Q16643
row,effect of a mutation on the interaction,Variant
1,disrupting interaction strength,H311A
